In patent publication US20240124595A1 (UNIVERSITY OF SASKATCHEWAN, published 2024) one finds binding result and EC50 data, which are given here for 5 molecules.

For assay [1], the target named is T1, recombinant human IGF2R domains 11-13 Fc fusion protein (human, UniProt P11717 1511-1989).
T1 construct: Soluble Fc fusion expressed in Expi293F; also called human IGF2R fragment; not shown: human IgG1 Fc from a modified pFUSE-hIgG1-Fc2 vector (Invivogen)
As to the kind of experiment: competitive Fab-phage ELISA, same protein in solution as competitor.

For assay [2], the target named is T2, recombinant murine IGF2R domains 11-13 Fc fusion protein (murine; human, UniProt Q07113 1504-1982).
T2 construct: Soluble Fc fusion expressed in Expi293F; also called murine IGF2R fragment; not shown: human IgG1 Fc from a modified pFUSE-hIgG1-Fc2 vector (Invivogen)
The assay is described as above.

Assay [3] addresses T3, recombinant canine IGF2R domains 11-13 Fc fusion protein (canine; human).
T3 construct: Soluble Fc fusion expressed in Expi293F; also called canine IGF2R fragment; not shown: human IgG1 Fc from a modified pFUSE-hIgG1-Fc2 vector (Invivogen)
T3 chain: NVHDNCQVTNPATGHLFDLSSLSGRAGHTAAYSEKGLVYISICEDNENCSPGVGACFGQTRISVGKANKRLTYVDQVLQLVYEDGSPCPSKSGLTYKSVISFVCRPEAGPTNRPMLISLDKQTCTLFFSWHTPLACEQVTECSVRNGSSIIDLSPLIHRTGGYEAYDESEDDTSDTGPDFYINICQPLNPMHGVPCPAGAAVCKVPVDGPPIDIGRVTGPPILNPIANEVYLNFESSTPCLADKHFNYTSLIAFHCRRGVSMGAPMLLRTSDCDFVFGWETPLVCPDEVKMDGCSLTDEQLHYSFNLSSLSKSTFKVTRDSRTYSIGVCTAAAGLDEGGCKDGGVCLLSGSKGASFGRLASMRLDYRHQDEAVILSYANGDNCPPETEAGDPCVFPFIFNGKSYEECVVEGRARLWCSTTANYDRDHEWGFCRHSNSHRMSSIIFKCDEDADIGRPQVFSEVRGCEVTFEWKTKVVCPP
The description is as above.

For assay [4], the target named is T4, human IGF2R on human osteosarcoma cells (human, UniProt P11717 41-2491).
T4 construct: whole, on cells; Endogenous receptor on tumour cell lines, not transfected cells; also called OS-33
T4 sequence (P11717 41-2491): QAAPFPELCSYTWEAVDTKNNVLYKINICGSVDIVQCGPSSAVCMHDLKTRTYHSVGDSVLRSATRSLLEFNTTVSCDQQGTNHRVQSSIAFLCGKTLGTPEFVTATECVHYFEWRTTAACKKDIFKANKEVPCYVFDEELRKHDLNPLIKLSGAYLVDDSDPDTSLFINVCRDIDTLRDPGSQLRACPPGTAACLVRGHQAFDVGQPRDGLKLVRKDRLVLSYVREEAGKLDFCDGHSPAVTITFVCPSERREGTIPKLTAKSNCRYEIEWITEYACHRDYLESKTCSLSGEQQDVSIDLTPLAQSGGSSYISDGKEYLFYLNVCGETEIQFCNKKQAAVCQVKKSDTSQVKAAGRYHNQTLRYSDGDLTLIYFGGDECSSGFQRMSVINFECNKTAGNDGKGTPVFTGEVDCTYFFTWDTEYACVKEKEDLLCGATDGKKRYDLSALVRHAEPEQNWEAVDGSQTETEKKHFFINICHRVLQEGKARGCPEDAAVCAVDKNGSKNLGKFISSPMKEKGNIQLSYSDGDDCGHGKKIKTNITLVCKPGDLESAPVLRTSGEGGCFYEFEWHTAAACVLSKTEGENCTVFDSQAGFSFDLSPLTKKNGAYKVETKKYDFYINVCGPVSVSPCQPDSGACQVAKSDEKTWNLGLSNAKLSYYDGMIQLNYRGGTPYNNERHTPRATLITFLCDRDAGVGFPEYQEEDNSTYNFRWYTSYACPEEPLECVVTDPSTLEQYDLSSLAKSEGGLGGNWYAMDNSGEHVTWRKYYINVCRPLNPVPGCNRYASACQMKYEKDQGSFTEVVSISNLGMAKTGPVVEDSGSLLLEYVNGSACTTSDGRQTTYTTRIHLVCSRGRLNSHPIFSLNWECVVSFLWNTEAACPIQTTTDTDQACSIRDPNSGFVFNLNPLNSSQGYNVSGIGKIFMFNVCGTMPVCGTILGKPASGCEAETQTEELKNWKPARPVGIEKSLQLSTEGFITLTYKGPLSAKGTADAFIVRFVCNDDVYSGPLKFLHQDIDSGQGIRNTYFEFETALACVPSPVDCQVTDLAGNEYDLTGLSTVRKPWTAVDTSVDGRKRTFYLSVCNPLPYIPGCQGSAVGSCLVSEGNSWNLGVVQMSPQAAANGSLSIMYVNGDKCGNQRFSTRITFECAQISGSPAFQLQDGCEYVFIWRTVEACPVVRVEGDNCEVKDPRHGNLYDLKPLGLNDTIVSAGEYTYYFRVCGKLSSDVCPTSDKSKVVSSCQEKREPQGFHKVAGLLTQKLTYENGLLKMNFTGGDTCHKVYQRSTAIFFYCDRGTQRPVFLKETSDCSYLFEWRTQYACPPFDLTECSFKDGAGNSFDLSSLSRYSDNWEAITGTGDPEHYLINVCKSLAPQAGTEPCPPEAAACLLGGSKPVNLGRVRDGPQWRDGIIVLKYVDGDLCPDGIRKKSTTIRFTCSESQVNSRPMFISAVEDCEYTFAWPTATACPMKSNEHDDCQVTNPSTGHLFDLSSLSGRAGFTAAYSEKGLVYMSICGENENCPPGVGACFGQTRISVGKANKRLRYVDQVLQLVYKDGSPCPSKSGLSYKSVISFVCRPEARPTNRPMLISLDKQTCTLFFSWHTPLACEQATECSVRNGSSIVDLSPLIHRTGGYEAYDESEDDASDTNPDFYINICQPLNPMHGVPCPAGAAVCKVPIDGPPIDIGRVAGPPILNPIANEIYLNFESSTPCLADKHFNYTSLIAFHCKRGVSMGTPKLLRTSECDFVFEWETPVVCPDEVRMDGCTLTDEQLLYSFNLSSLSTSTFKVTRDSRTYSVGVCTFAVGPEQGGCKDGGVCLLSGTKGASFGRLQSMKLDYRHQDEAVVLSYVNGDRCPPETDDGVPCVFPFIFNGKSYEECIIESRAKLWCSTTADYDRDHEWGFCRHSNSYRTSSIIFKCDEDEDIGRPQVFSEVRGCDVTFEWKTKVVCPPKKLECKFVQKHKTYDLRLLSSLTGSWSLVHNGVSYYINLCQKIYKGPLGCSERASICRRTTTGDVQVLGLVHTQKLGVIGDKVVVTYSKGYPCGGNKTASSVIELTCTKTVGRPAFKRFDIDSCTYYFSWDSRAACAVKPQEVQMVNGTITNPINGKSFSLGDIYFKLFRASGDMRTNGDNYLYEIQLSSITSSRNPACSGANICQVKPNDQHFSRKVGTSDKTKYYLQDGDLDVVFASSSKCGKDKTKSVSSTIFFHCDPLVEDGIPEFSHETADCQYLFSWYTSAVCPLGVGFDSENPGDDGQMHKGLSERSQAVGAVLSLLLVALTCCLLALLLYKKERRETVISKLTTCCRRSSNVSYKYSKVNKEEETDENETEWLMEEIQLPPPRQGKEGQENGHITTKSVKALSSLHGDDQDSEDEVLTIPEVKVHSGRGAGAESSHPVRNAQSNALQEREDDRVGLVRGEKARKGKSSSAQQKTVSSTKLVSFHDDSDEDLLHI
Put plainly: flow cytometry on human OS cell lines.

Assay [5] has as its target T1, recombinant human IGF2R domains 11-13 …. As to the kind of experiment: ELISA on coated recombinant IGF2R.
The target of assay [6] is T2, recombinant murine IGF2R domains 11-13 …. Put plainly: ELISA on coated recombinant IGF2R.
The target in assay [7] is T3, recombinant canine IGF2R domains 11-13 …. Put plainly: ELISA on coated recombinant IGF2R.
The target in assay [8] is T5, recombinant human IGF2R domains 11-13 Fc fusion protein (UniProt P11717 1511-1989).
T5 chain: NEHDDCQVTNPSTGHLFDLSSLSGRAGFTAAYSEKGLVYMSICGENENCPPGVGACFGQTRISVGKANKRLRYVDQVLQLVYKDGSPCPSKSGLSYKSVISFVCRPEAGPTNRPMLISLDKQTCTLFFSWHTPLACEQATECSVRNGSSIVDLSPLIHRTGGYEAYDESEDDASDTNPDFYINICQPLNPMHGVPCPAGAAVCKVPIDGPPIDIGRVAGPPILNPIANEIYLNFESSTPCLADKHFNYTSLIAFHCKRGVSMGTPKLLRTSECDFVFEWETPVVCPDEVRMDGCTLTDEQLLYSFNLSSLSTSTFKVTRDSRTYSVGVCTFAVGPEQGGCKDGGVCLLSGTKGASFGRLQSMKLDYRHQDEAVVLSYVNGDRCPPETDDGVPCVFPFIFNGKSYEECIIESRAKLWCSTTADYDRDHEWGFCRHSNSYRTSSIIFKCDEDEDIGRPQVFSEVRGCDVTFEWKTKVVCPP
Put plainly: ELISA; printed as "IC 50 or EC 50".

For assay [9], the target named is T6, recombinant canine IGF2R domains 11-13 Fc fusion protein.
T6 chain: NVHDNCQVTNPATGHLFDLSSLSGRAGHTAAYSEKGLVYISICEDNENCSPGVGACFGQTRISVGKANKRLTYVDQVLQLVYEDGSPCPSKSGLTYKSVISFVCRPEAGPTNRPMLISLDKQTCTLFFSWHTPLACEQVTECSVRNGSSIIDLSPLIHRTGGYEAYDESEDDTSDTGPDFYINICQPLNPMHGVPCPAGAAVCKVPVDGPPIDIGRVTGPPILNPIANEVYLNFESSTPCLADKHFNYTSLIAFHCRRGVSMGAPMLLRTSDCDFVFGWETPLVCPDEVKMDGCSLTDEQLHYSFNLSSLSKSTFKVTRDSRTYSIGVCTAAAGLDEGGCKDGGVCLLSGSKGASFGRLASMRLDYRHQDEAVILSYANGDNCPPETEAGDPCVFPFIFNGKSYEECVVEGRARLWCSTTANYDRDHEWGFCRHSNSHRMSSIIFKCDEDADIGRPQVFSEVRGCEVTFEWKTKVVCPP
As to the kind of experiment: ELISA; printed as "IC 50 or EC 50".

The target in assay [10] is T7, recombinant murine IGF2R domains 11-13 Fc fusion protein (UniProt Q07113 1504-1982).
T7 chain: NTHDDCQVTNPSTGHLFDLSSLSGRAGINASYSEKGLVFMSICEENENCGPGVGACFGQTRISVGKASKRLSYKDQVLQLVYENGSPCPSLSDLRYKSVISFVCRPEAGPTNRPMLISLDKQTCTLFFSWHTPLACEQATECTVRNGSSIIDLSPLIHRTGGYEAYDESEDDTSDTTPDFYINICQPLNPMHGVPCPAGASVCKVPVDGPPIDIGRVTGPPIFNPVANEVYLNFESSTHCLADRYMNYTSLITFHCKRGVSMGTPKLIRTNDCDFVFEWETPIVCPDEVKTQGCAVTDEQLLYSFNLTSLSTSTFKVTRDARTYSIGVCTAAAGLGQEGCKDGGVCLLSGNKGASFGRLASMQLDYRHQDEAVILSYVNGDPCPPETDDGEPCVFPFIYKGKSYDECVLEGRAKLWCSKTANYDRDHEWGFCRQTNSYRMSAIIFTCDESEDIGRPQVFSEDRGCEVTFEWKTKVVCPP
Put plainly: ELISA; printed as "IC 50 or EC 50".

Assay [11] concerns the target T1, recombinant human IGF2R domains 11-13 …. As to the kind of experiment: phage ELISA on recombinant IGF2R Fc fusion.

B1: IGF2R-Fab-2 (Fab, V domains shown)
VH: EVQLVESGGGLVQPGGSLRLSCAASGFNIKYTYIHWVRQAPGKGLEWVALIDPHYGFTRYADSVKGRFTISADTSKNTAYLQMNSLRAEDTAVYYCSRWYYDHAMDYWGQGTLVTVSS
VL: DIQMTQSPSSLSASVGDRVTITCRASQLVDTAVAWYQQKPGKAPKLLIYFASYLYSGVPSRFSGSRSGTDFTLTISSLQPEDFATYYCQQVVYYPPTFGQGTKVEIK
notes: From the synthetic 4D5-8 (trastuzumab framework) library; also called Fab-phage
For B1, the binding result in assay [1], in [2] and in assay [3] was “binds” in each case.

B2: IF3 (antibody, human IgG1, kappa, V domains shown)
VH: EVQLVESGGGLVQPGGSLRLSCAASGFNIKDTYIHWVRQAPGKGLEWVAFIDPIFGDTRYADSVKGRFTISADTSKNTAYLQMNSLRAEDTAVYYCSRWGGDGFYAMDYWGQGTLVTVSS
VL: DIQMTQSPSSLSASVGDRVTITCRASQDVNTAVAWYQQKPGKAPKLLIYSASFLYSGVPSRFSGSRSGTDFTLTISSLQPEDFATYYCQQAYFFHHFPPTFGQGTKVEIKR
notes: Full-length human IgG1 kappa expressed in Expi293F cells; also called 1F3; IGF2R-IgG#3
Consider B2, for which the binding result in assay [4], in assay [5], in [6] and in assay [7] was “binds” each time. In addition, the EC50 is 1.14 nM in assay [8], 3.22 nM in assay [9] and 3.06 nM in assay [10].

B3: IGF2R-Fab-3 (Fab, V domains shown)
VH: EVQLVESGGGLVQPGGSLRLSCAASGFNIKDTYIHWVRQAPGKGLEWVAFIDPIFGDTRYADSVKGRFTISADTSKNTAYLQMNSLRAEDTAVYYCSRWGGDGFYAMDYWGQGTLVTVSS
VL: DIQMTQSPSSLSASVGDRVTITCRASQDVNTAVAWYQQKPGKAPKLLIYSASFLYSGVPSRFSGSRSGTDFTLTISSLQPEDFATYYCQQAYFFHHFPPTFGQGTKVEIK
notes: as for B1
On to B3, for which the binding result in [1], in [2] and in assay [3] was “binds” throughout.

B4: IGF2R-Fab-1 (Fab, V domains shown)
VH: EVQLVESGGGVVQPGGSLRLSCAASGFTFSSYAMHWVRQAPGKGLEWVAVISYDGSNKYYADSVKGRFTISRDNSKNTLYLQMNSLRAEDTAVYYCARDDRFFGGMDVWGQGTTVTVSS
VL: AIRMTQSPSSLSASVGDRVTITCRASQDISSWLAWYQQKPDKAPKSLIYAASSLEDGVPSRFSGSGSGTDFTLTISSLQAEDFATYYCQQYNTYPWTFGQGTKVEIK
notes: From the naive library (VH3-30 / VK1); also called Fab-phage
With B4, the binding result in assay [2], in [3] and in [11] was “binds” throughout.

B5: IF1 (antibody, human IgG1, kappa, V domains shown)
VH: EVQLVESGGGVVQPGGSLRLSCAASGFTFSSYAMHWVRQAPGKGLEWVAVISYDGSNKYYADSVKGRFTISRDNSKNTLYLQMNSLRAEDTAVYYCARDDRFFGGMDVWGQGTTVTVSS
VL: AIRMTQSPSSLSASVGDRVTITCRASQDISSWLAWYQQKPDKAPKSLIYAASSLEDGVPSRFSGSGSGTDFTLTISSLQAEDFATYYCQQYNTYPWTFGQGTKVEIKR
notes: Full-length human IgG1 kappa expressed in Expi293F cells; also called IGF2R-IgG#1; full-size human IgG from Fab1
Consider B5, for which the binding result in assay [4], in assay [5], in [6] and in assay [7] was “binds” in each case.
